{"source": "patent US20110301073", "test_in_all_cases": "cell_activity", "key": {"[1]": {"system": "TALEN 101234 (HD half repeat) (synthetic (Xanthomonas TALE))", "conditions": "paired with 101231"}, "[2]": {"system": "TALEN 101235 (HD half repeat) (synthetic (Xanthomonas TALE))", "conditions": "paired with 101238"}, "[3]": {"system": "TALEN 101236 (HD half repeat) (synthetic (Xanthomonas TALE))", "conditions": "paired with 101238; 2.5% with 101237"}, "[4]": {"system": "TALEN 101239 (HD half repeat) (synthetic (Xanthomonas TALE))", "conditions": "paired with 101167; 11.2% with 101240"}, "[5]": {"system": "TALEN 101151 (synthetic (Xanthomonas TALE))", "conditions": "paired with 101233"}, "[6]": {"system": "TALEN 101238 (HD half repeat) (synthetic (Xanthomonas TALE))", "conditions": "paired with 101236; 8.1% with 101235"}, "[7]": {"system": "TALEN 101237 (NK half repeat) (synthetic (Xanthomonas TALE))", "conditions": "paired with 101236"}, "[8]": {"system": "TALEN 101167 (synthetic (Xanthomonas TALE))", "conditions": "paired with 101239; 5.3% with 101166"}, "[9]": {"system": "TALEN 101240 (HD half repeat) (synthetic (Xanthomonas TALE))", "conditions": "paired with 101239; 10.7% with 101166"}, "[10]": {"system": "TALEN 101166 (synthetic (Xanthomonas TALE))", "conditions": "paired with 101240; 5.3% with 101167"}, "[11]": {"system": "TALEN 101233 (NI half repeat) (synthetic (Xanthomonas TALE))", "conditions": "paired with 101151"}, "[12]": {"system": "TALEN 101230 (HD half repeat) (synthetic (Xanthomonas TALE))", "conditions": "paired with 101156"}, "[13]": {"system": "TALEN 101231 (NI half repeat) (synthetic (Xanthomonas TALE))", "conditions": "paired with 101234"}, "[14]": {"system": "TALEN 101156 (synthetic (Xanthomonas TALE))", "conditions": "paired with 101230"}, "[15]": {"system": "C1 TALEN 101380 (synthetic (Xanthomonas TALE))", "conditions": "paired with 101381"}, "[16]": {"system": "C1 TALEN 101371 (synthetic (Xanthomonas TALE))", "conditions": "paired with 101370; site given 3'-5', reversed here"}, "[17]": {"system": "C1 TALEN 101378 (synthetic (Xanthomonas TALE))", "conditions": "paired with 101379"}, "[18]": {"system": "RPD1 TALEN 101393 (synthetic (Xanthomonas TALE))", "conditions": "paired with 101389; site given 3'-5', reversed here"}, "[19]": {"system": "RPD1 TALEN 101391 (synthetic (Xanthomonas TALE))", "conditions": "paired with 101390; site given 3'-5', reversed here"}, "[20]": {"system": "C1 TALEN 101370 (synthetic (Xanthomonas TALE))", "conditions": "paired with 101371"}, "[21]": {"system": "RPD1 TALEN 101388 (synthetic (Xanthomonas TALE))", "conditions": "paired with 101391; Neuro 2A"}, "[22]": {"system": "RPD1 TALEN 101389 (synthetic (Xanthomonas TALE))", "conditions": "paired with 101393; Neuro 2A"}, "[23]": {"system": "C1 TALEN 101381 (synthetic (Xanthomonas TALE))", "conditions": "paired with 101380; site given 3'-5', reversed here"}, "[24]": {"system": "RPD1 TALEN 101390 (synthetic (Xanthomonas TALE))", "conditions": "paired with 101391; printed site lacks one A relative to the locus"}}, "data": [{"sequence": "ACCGCTGTGCTCCTGGC (double strand) [101234 site]", "values": [{"measurement": "activity", "setting": "[1]", "value": 10, "unit": "% NHEJ"}]}, {"sequence": "ACGCCGTGGAAAGGC (double strand) [101235 site]", "values": [{"measurement": "activity", "setting": "[2]", "value": 8.1, "unit": "% NHEJ"}]}, {"sequence": "ACGCCGTGGAAAGGCC (double strand) [101236 site]", "values": [{"measurement": "activity", "setting": "[3]", "value": 9.2, "unit": "% NHEJ"}]}, {"sequence": "ATGAGCGGCCCCGCC (double strand) [101239 site]", "values": [{"measurement": "activity", "setting": "[4]", "value": 13.1, "unit": "% NHEJ"}]}, {"sequence": "CCGCACCCCCAGCT (double strand) [101151 site]", "values": [{"measurement": "activity", "setting": "[5]", "value": 13.3, "unit": "% NHEJ"}]}, {"sequence": "CGGGGATGATCTAC (double strand) [101238 site]", "values": [{"measurement": "activity", "setting": "[6]", "value": 9.2, "unit": "% NHEJ"}]}, {"sequence": "CGGGGATGATCTACGG (double strand) [101237 site]", "values": [{"measurement": "activity", "setting": "[7]", "value": 2.5, "unit": "% NHEJ"}]}, {"sequence": "CGTTGCCCCCGCCCT (double strand) [101167 site]", "values": [{"measurement": "activity", "setting": "[8]", "value": 13.1, "unit": "% NHEJ"}]}, {"sequence": "GAATCGTTGCCCCCGC (double strand) [101240 site]", "values": [{"measurement": "activity", "setting": "[9]", "value": 11.2, "unit": "% NHEJ"}]}, {"sequence": "GAGCGGCCCCGCCCGT (double strand) [101166 site]", "values": [{"measurement": "activity", "setting": "[10]", "value": 10.7, "unit": "% NHEJ"}]}, {"sequence": "GCTCCTGGCCCTTGCA (double strand) [101233 site]", "values": [{"measurement": "activity", "setting": "[11]", "value": 13.3, "unit": "% NHEJ"}]}, {"sequence": "GGCACTCCGCACCCC (double strand) [101230 site]", "values": [{"measurement": "activity", "setting": "[12]", "value": 4.9, "unit": "% NHEJ"}]}, {"sequence": "GGCACTCCGCACCCCCA (double strand) [101231 site]", "values": [{"measurement": "activity", "setting": "[13]", "value": 10, "unit": "% NHEJ"}]}, {"sequence": "TACCGCTGTGCTCCT (double strand) [101156 site]", "values": [{"measurement": "activity", "setting": "[14]", "value": 4.9, "unit": "% NHEJ"}]}, {"sequence": "TCCTACGACGAGGAGGAT (double strand) [101380 site]", "values": [{"measurement": "activity (relative DLSSA units)", "setting": "[15]", "value": 10.3}]}, {"sequence": "TCGTCCACGCCCCTCTCT (double strand) [101371 site]", "values": [{"measurement": "activity (relative DLSSA units)", "setting": "[16]", "value": 5}]}, {"sequence": "TGAACTACCTCCGGCCC (double strand) [101378 site]", "values": [{"measurement": "activity (relative DLSSA units)", "setting": "[17]", "value": 7.1}]}, {"sequence": "TGAACTAGTGGGAGTGTT (double strand) [101393 site]", "values": [{"measurement": "activity (relative DLSSA units)", "setting": "[18]", "value": 9.9}]}, {"sequence": "TGGGAGTGTTGCAT (double strand) [101391 site]", "values": [{"measurement": "activity (relative DLSSA units)", "setting": "[19]", "value": 9.7}]}, {"sequence": "TGGGGAGGAGGGCGTGCT (double strand) [101370 site]", "values": [{"measurement": "activity (relative DLSSA units)", "setting": "[20]", "value": 5}]}, {"sequence": "TTATTTGAAGAAACT (double strand) [101388 site]", "values": [{"measurement": "activity (relative DLSSA units)", "setting": "[21]", "value": 7.6}]}, {"sequence": "TTATTTGAAGAAACTAT (double strand) [101389 site]", "values": [{"measurement": "activity (relative DLSSA units)", "setting": "[22]", "value": 9.9}]}, {"sequence": "TTGCCGAGGAGCCTGT (double strand) [101381 site]", "values": [{"measurement": "activity (relative DLSSA units)", "setting": "[23]", "value": 10.3}]}, {"sequence": "TTTGAAGAACTATATT (double strand) [101390 site]", "values": [{"measurement": "activity (relative DLSSA units)", "setting": "[24]", "value": 9.7}]}]}
